From patent publication US20220324959A1 (Janssen / Centocor, published 2022)

What was measured:
recombinant human TNFα [1] = target: T1, recombinant human TNFα (human, UniProt P01375 77-233, 125I label in the receptor blocking assay); assay: inhibition of 125I-TNFα binding to plate-coated p55-sf2, hybridoma supernatant
T1 construct: also called huTNFα; tumor necrosis factor alpha
Procedure: (§1) 50:1 of p55-sf2 at 0.5:g/ml in PBS was added to Optiplates to coat the wells during a one-hour incubation at 37° C. Serial dilutions of the eight TNV cell supernatants were prepared in 96-well round-bottom plates using PBS/0.1% BSA as diluent. […] The mixture was preincubated for one hour at RT. The coated Optiplates were washed to remove unbound p55-sf2 and 50:1 of the ¹²⁵I-TNFα/cell supernatant mixture was transferred to the Optiplates. After 2 hrs at RT, Optiplates were washed three times with PBS-Tween. […] of Microscint-20 was added and the cpm bound determined using the TopCount gamma counter.
A simple binding assay was done to determine whether the eight TNV mAbs contained in hybridoma cell supernatant were capable of blocking TNFα binding to receptor. The concentrations of the TNV mAbs in their respective cell supernatants were first determined by standard ELISA analysis for human IgG.

recombinant human TNFα [2] = target: T1, recombinant human TNFα; assay: competition radioligand assay: mAb in hybridoma supernatant preincubated with 5 ng/ml 125I-TNFα, then binding of 125I-TNFα to plate-coated p55-sf2 (TNF receptor/IgG fusion) counted as cpm bound
Procedure: Varying amounts of hybridoma cell supernatants containing known amounts of TNV mAb were preincubated with a fixed concentration (5 ng/ml) of ¹²⁵I-labeled TNFα. […] The amount of TNFα that bound to the p55 receptor in the presence of the mAbs was determined after washing away the unbound material and counting using a gamma counter. Although eight TNV mAb samples were tested in these experiments, for simplicity three of the mAbs that were shown by DNA sequence analyses to be identical to one of the other TNV mAbs (see Section 5.2.2) are not shown here. Each sample was tested in duplicate. The results shown are representative of two independent experiments.
as §1

recombinant human TNFα [3] = target: T1, recombinant human TNFα; assay: cell-based or functional assay

fold better at blocking TNF binding (against TNV118 and TNV14) (recombinant human TNFα [1]) | IC50 (read off the curve) (recombinant human TNFα [2]) | neutralizing TNFα bioactivity (recombinant human TNFα [3]) | Binder
~4 fold | ~4 ng/mL | 4 fold | TNV148 (antibody, human IgG1, kappa, V domains shown, Hybridoma-derived fully human IgG1 kappa, tested as hybridoma supernatant; also called GenTNV148.26.12; C420A) VH: QVQLVESGGGVVQPGRSLRLSCAASGFIFSSYAMHWVRQAPGNGLEWVAFMSYDGSNKKYADSVKGRFTISRDNPKNTLYLQMNSLRAEDTAVYYCARDRGIAAGGNYYYYGMDVWGQGTTVTVSS VL: EIVLTQSPATLSLSPGERATLSCRASQSVYSYLAWYQQKPGQAPRLLIYDASNRATGIPARFSGSGSGTDFTLTISSLEPEDFAVYYCQQRSNWPPFTFGPGTKVDIKR
~4 fold |  |  | TNV86 (antibody, human IgG1, kappa, V domains shown, Hybridoma-derived fully human IgG1 kappa, tested as hybridoma supernatant; Identity is stated for the variable regions only; also called GenTNV86.14.34; C417A) VH: QVQLVESGGGVVQPGRSLRLSCAASGFIFSSYAMHWVRQAPGNGLEWVAFMSYDGSNKKYADSVKGRFTISRDNPKNTLYLQMNSLRAEDTAVYYCARDRGIAAGGNYYYYGMDVWGQGTTVTVSS VL: EIVLTQSPATLSLSPGERATLSCRASQSVYSYLAWYQQKPGQAPRLLIYDASNRATGIPARFSGSGSGTDFTLTISSLEPEDFAVYYCQQRSNWPPFTFGPGTKVDIKR
